Experimental findings from patent US20080113907A1, “Uses Of Galectin-2” (Charite-Universitat-Smedizin Berlin, priority 2004, published 2008) are described below.

For assay [1], the system named is caspase-9. The assay is described as follows: Caspase activity by flow cytometry. The settings on record: anti-CD3 activated PBT, 50 μg/ml, 24 h. Format: cell-based, human. The protocol: (§1) To measure caspase activity, 5×10^5 PBT were incubated in the presence or absence of 50 μg/ml galectin-2 together with derivates of the PE-labelled affinity purified anti-caspase-3 Ab (BD Pharmingen), the carboxyfluorescein-labelled caspase-8 inhibitor FAM-LETD-fmk or caspase-9 inhibitor FAM-LEHD-fmk (both from Biocharta, Hamburg, Germany), all binding irreversibly to activated caspase-3, -8 or -9, respectively. Cells were than analyzed by flow cytometry (FACS-Calibur, BD) and the increase of caspase activity determined after proper gating in correlation to untreated cells.
(A flow cytometer gives signals particle by particle.)

Assay [2] has as its system caspase-3. Put plainly: Caspase activity by flow cytometry. The class given is cell-based, human. The following applies: anti-CD3 activated PBT, 50 μg/ml, 24 h. On the procedure: as §1

B1: galectin-2: β-galactoside binding lectin, non-covalent dimer with subunits of about 14 kDa; recombinant human or rat (SEQ ID NO:1, 2) (protein)
chain: MAGELEVKNMDMKPGSTLKITGSIADGTDGFVINLGQGTDKLNLHFNPRFSESTIVCNSLDGSNWGQEQREDHLCFSPGSEVKFTVTFESDKFKVKLPDGHELTFPNRLGHSHLSYLSVRGGFNMSSFKLKE
For B1, in assay [1], the caspase-9 activity result is “significant increase”. For the same molecule, in assay [2], the caspase-3 activity result was “significant increase”.
